Laboratory results from PMC9308819 (Nature Communications, 2022).

B1: Rep15, full length (natural N101D variant) [human] / Rab3A, purified, nucleotide-loaded [human] (parent complex)
chain 1: MGQKASQQLALKDSKEVPVVCEVVSEAIVHAAQKLKEYLGFEYPPSKLCPAANTLNEIFLIHFITFCQEKGVDEWLTTTKMTKHQAFLFGADWIWTFWGSDKQIKLQLAVQTLQMSSPPPVESKPCDLSNPESRVEESSWKKSRFDKLEEFCNLIGEDCLGLFIIFGMPGKPKDIRGVVLDSVKSQMVRSHLPGGKAVAQFVLETEDCVFIKELLRNCLSKKDGLREVGKVYISIL
chain 2: MASATDSRYGQKESSDQNFDYMFKILIIGNSSVGKTSFLFRYADDSFTPAFVSTVGIDFKVKTIYRNDKRIKLQIWDTAGQERYRTITTAYYRGAMGFILMYDITNEESFNAVQDWSTQIKTYSWDNAQVLLVGNKCDMEDERVVSSERGRQLADHLGFEFFEASAKDNINVKQTFERLVDVICEKMSESLDTADPAVTGAKQGPQLSDQQVPPHQDCAC

Variants of: B1
Experiment: ITC

| Kd | Variant |
| --- | --- |
| 510 nM | chain 1 V135A |

Variants of: B1
Experiment: ITC
Remark: another data set of the same source

| Kd | Variant |
| --- | --- |
| 450 nM | chain 1 H84A |
